# Measurements as given in a protein production outcome set (Wang et al. 2014).
# Assay: label from the status in PepcDB records
row,Sequence,protein production
1,MPLELVVIHSYKSSDMKPYLLSAFAAILSTSAMAYDVKSGGKTSVKKDGANAYSLPATNLPMSKRLDFSVGNSFFRNPWVQAPATTDARDGLGPLFNTNGCQNCHIKDGRGHPPEKDDIHAVSMLVRLSIPAMTPKQKKAYIMDGGIPEPTYGGQLQDFALQDQTPEGKIAITYTDVPVEFKDGSKVTLRKPTLKITDLGYGDMHPDTQFSARVAPPMIGLGLLESIPDETLLKWADENDSDSDGISGKVNKVWDIEKGDFSLGRFGWKAGQPTLMQQNAAAFNGDVGLTSHLFPNENCTAKQSLCEELPNGGKPEVSQNILDFVEFYSQHLAVPIRRNVNDPDVQLGQKIFAASGCESCHKTSVKTTKRADRPALSEQLIHPYTDLLLHDMGEGLADHRPEYLANGREWRTPPLWGIGYTEEVNGHTYFLHDGRARNLMEAVLWHGGEAEQAKQNVLSLNQKERDALIAFLNSL,failed
2,MPLFSQHTARFSPDVPLEGTSSRELLKRYQPLETLATGGFGSIEICRDTHLRRRVAIKRIPLINGAGMPASDIMDVLREAHTAAMLQHPNIVQVIDFTHDTAYAYLVMEYVDGMSLAEFLHRVDGHSLTFDEAAAIADALGQALTFAHSNGVLHLDIKPANVLIDHSGNVKLTDFGMARLSSAGGFGGSRGGTIGYMPPEQLDIETGTVDERADVFALACVIYEGLCGSAPFMAATPADSLGHIIGGATYPSELIPHFPPGAESALMSALSPMPQDRPNSIEAFCDQLLAGLGSVREGRRSLEQMVGELSDDEQELDDIEPSHYEDDAIEVDPALGWAGTRWSHARDYTMRTISALTCGTFSFLLMQTAGVAALPGLVIAAIAIGAAAGLAPQIGSAISAVGFLVLMANATMQAQGILSMLPVAVIFAAAMSGWWIAWGRTETAASATLTCALALGCLTGNTFLAAGVAAGVASFWLGPASAAAATGMGALFARLATVALSAGGVLGLGNVAAALGDPLLWAAFVLVAATAAASSALLNVHAKRANQGSNLAAIAAIAVTGIGCAAASCLAHHMEIASLAAAVIAKAAVAGILSSIIVGICLYLLGYQRTYTESDLS,failed
3,MPLLTIGDQFPAYQLTALIGGDLSKVDAKQPGDYFTTITSDEHPGKWRVVFFWPKDFTFVCPTEIAAFSKLNDEFEDRDAQILGVSIDSEFAHFQWRAQHNDLKTLPFPMLSDIKRELSQAAGVLNADGVADRVTFIVDPNNEIQFVSATAGSVGRNVDEVLRVLDALQSDELCACNWRKGDPTLDAGELLKASA,not failed
4,MPLPKSLKYGDTIGIYSPSSPVTYTSPKRFERAKSYLLQKGFHILEGSLTGRYDYYRSGSIQERAKELNALIRNPNVSCIMSTIGGMNSNSLLPYIDYDAFQNNPKIMIGYSDATALLLGIYAKTGIPTFYGPALVPSFGEFEPFVDDTYKYFLETLLHDQALPYNIKQPLFWSDEFINWEEKTKEKELRPNNWISVTNGQATGRVIGGNLNTIQGIWGSPYMPCIQEGDILFIEDSSKDAATIERSFSFLKINGVFDKVSGIILGKHEQFDDCGTNRKPYEILLEVLQNQRIPLLADFDCCHTHPMITMPIGVQVKMDATNKTIHILEKWKI,not failed
5,MPLSTSDNIAAVIVTHKRVELLRASLEVVAAQTHPVKWIIVVDNGCEDAVRDLLHSVAGDRGIYLPSHTNLGGAGGFAYGFLTALALGADAIWCADDDGRPEGPQVLATLIDAAVTHQLDEVSPVVCNMDDPNRLAFPLRRGLEWRRYRSELIDPNNPSDTLLPGIASLFNGALISAAAMERIGVPDLRLFIRGDEVEYHRRLVRSGLNFGTCLTTAYLHPDGSDEFKPILGGRMHTQYPASDAKRYFTYRNRGYLMNQPGMRRLLPQEYARFAWFFLIQRRDPRGFLEWFKLHQLGRSEKFERPLEHHHHHH,failed
6,MPLSYSSPSLSEERSDDPSKYDGDFGVPQICFCGKQLELVERLIGDQKKTFLKCPMSGQDDNYHVDKGWDLVVHEQCFCIDKRFGEHRELIQNAFKFGGDSNRLQINQIRAEIEDLKDRLDKKDAEITRLMDALGKK,failed
7,MPLTMLSEGKGCRIKEVRAGLELKRRLTEMGFTPSSSVRLIGCERGNLLVNVNGARYALGKGMAMKIMVEPDPCEGVELGLEHHHHHH,failed
8,MPMSSPMMSDTDREDLDAILRTVLVSDKGYVETLSRATGLNGKALTDKAAFTLSRLSAVGGYDYENEALEVAGRYLAEARFTEAEAIYRQVLVSFPEKHGFNHPGYATRLNNLAEVLRATARYDEAESLYRQALEIDREALGLEHPDYGIDLLNLAGLLHDRGRYEAAEPLYREAMTIIGKVVGEEHYRYATAQNNLAGLLQDMLRFEEAEALCRQALEITSKTLGESHSVYATRLNNLAELLGTTERYGEAEPLYRQALEITQKTLGEEHPDFAIRLNNLAVLLKATGRYEEAEPLYRQALEITHRTLGEAHPDYATRLNNFAGLLDSTERYDEAEPLYRQALEICEKALGVEHPSTQTVRANLELFLSEKPD,failed
9,MPNFKSKKIKEINLPYSKDDVEFLWLAKNDNVSLIYTKVQEESFFLQIKKAQNGFVIKGDKHTKPSKIGYLQKALKIFKEGFCEDIINEAFGLKNNALIEKTPFIVDNFDELLSRLQGKIYIEIGFGSGRHLLYQAKENPNVLILGVEIYNPALTQVAKLAKAQNVNNILLIQSDARLLLSVLKSKSVEKIFLHFPVPWDKKPHRRVIGKDFCKECARVLVQNGRFELRTDSFEYFNFTLEQFLTFPAPKFSLRKNENLEISSKYEDRWKKQEKNIYDLWVWNFNQECKNYELNEFNLSSVEFSKEDLKKIEQNFKNITIKKDDFFLHFESIYKQDENLLLKVAFGAFNKPEHCYLHLDKTIDFAFKEPFKIQENIKAINELKEILKVQFKI,failed
10,MPNNDSFYKKVLDNLYDGIYFVDEQRRITYWNKGAQMLTGYGEKEVIGRNCHDIFLHLDSNGNGICSDACPIEKTITDGRKRDEESFLHHKDGHLVPVCLRVAPIQDTDGQMVVAVEVTGDHSPRHALRQQLENLQRLALCDPLTTIANRRYVEMSLNSRLEEMRRYGWHFGILFLDVDHFKQINDTHGHDTGDRVLKMVAKTLVNSARSFDVVGRWGGEEFIAVLANISRRQLPRIADRFRHLVEQSSFRLDDRLLRVTVSVGATMSHLDDTVESLVQRADTLMYRSKQAGRNCVSIGFGEEMPETSATPSASP,failed
11,MPNQVLFCITKMRYEEKRIYHYLEESGLSIKIMLDSSNLDEVVAHNSDYCLCIVRVMSQHRAFRIAEYMEALGIPTLNSSRAIQICADKAIQALILANRDVIKQPHFSILRNYEDLSNFNGKMVVKPVSSSWGRGISLIENEDALTTWKISHQELDIQNQNLPYLIQEFIDKPNYDVRIVIINTKPVVAFKRVSANNWKTNTHLGATVVPIVIDDSINKIVTEIIKVVGPGIYGLDLMKNRQNEWIFCEINQNPEFAHSWKIHHVDVAEKIAQYVSSKVKVGQKNASTHLEHHHHHH,failed
12,MPNTTAKKDYTKYSEKQLFNLIHQLERKIKKMQNDRISFKEKMAKELEKRDQNFKDKIDALNELLQKISQAFDDKRDCCLGHEIPNIETQQAMRDALNGINLTQIDSLDDFTNELKRENSKGFENVCFSV,failed
13,MPPMPVPIRILSVLLLVAMSASATAAPKKAPPASPPSSAGASSLEPVLAGEFALQAGQLDDAARAYLDAAKAEAGDAGLAERAARISMLANDDPRAIEALALWRARAPSSMSMRSTEASLALRRNDLRTARRDLLGLLKEPDPRGWRFALIALANGGREPEASADVLEDLVKAGAIPNQIEAWQEFGRLALRMERPALAKRIVDEVVRRFPEEPRVALLHATQLQQEGKNDEALALLKNIEPQAVKDSELRGALAFAYDAMGQTEAAARVLSTGPQDTQTYGLRASMLAKEKDRSSLEALYAELKSNATKPDPDRRLLLGKIAEFLKRYDEAVEWYRGVPGGPQLSEARLRAASALYELGRKPEALAEARALQGDASADDDARRDAYVLEAELHQRADDAPGELDAFERGLAAYPDDSALLYARGLAWERRDDVPRAEADLRKILVTEPENVAALNALGYTLADRTTRYKEALALIDRARTADPDNPAIVDSYGWVLYRMGRTKEALVQLRRAWALVKDPEIAAHVGEVLWVSGKQDEARRYFDEARRLDPDNRALQRAVEKFGL,failed
14,MPPPAAAAGLAGRPGRGAGSRLRPAVAAAGRRAHMIRCRHGGPRLQDIRNTVGNVPLEWYDDFPHVGYDLDGRRIYKPLRTRDELDQFLDKMDDPDYWRTVQDPMTGRDLRLTDEQVALVRRLQSGQFGDVGFNPYEPAVDFFSGDVMIHPVTNRPADKRSFIPSLVEKEKVSRMVHAIKMGWIQPRRPRDPTPSFYDLWAQEDPNAVLGRHKMHVPAPKLALPGHAESYNPPPEYLLSEEERLAWEQQEPGERKLSFLPRKFPSLRAVPAYGRFIQERFERCLDLYLCPRQRKMRVNVDPEDLIPKLPRPRDLQPFPTCQALVYRGHSDLVRCLSVSPGGQWLVSGSDDGSLRLWEVATARCVRTVPVGGVVKSVAWNPSPAVCLVAAAVEDSVLLLNPALGDRLVAGSTDQLLSAFVPPEEPPLQPARWLEASEEERQVGLRLRICHGKPVTQVTWHGRGDYLAVVLATQGHTQVLIHQLSRRRSQSPFRRSHGQVQRVAFHPARPFLLVASQRSVRLYHLLRQELTKKLMPNCKWVSSLAVHPAGDNVICGSYDSKLVWFDLDLSTKPYRMLRHHKKALRAVAFHPRYPLFASGSDDGSVIVCHGMVYNDLLQNPLLVPVKVLKGHVLTRDLGVLDVIFHPTQPWVFSSGADGTVRLFT,failed
15,MPPPTASTPDDSADPGPDFADVPPTDLVKVGFIFRPHGLDGELKIDPSATDDPARFEVLPTVFVGPHPRRVVRHDIASVRYQKTKRGITVILGLDGIVDRDDAEAVAKMDVFATEAALGLEDDELFADDLVGWTVVTEEGAVQGTVADFMEMPAQDLFVVRTPEDTEAMIPAIDDFIIEIDEEAERIVVRPIDGLMDALEHHHHHH,failed
16,MPPVPGVPFRNVDNDSPTSVELEDWVDAQHPTDEEEEEASSASSTLYLVFSPSSFSTSSSLILGGPEEEEVPSGVIPNLTESIPSSPPQGPPQGPSQSPLSSCCSSFSWSSFSEESSSQKGEDTGTCQGLPDSESSFTYTLDEKVAELVEFLLLKYEAEEPVTEAEMLMIVIKYKDYFPVILKRAREFMELLFGLALIEVGPDHFCVFANTVGLTDEGSDDEGMPENSLLIIILSVIFIKGNCASEEVIWEVLNAVGVYAGREHFVYGEPRELLTKVWVQGHYLEYREVPHSSPPYYEFLWGPRAHSESIKKKVLEFLAKLNNTVPSSFPSWYKDALKDVEERVQATIDTADDATVMASESLSVMSSNVSFSE,failed
17,MPQLQKEWFDTWFDTPYYHILYSNRDESEAEVFLTNLMNHMAVPKGASILDLPCGKGRHTLFLAEKGYTLTGADLSVASIALAQSHAPAGVTFLVHDLRKPAWNESFDYVLNLFTSFGYFETEAEDRAAFTTLSKALKSGGSLVIDFMNVTRAVNLLKEEETKVMEGIEFQLKRYVKDGYIHKEIRFEADNTPFFFTERVKALTLDDFKEFFTFAGLTLVDTFGSYQLDAYDAAESDRLIMIAKKLEHHHHHH,not failed
18,MPQTPPFPVMYGSTNGYNKNLYKAKEEDYEGLYYHDNNLISGSLEALIEHLVPTVAYYPDRTYIFTFLLSSRLFLHPYELMSKVCHLCVDQQRLSDPQADKARVRKIAPKILQLLTEWTETFPYDFRDERMMKSLKELTHRLSTGEDLYRKAVQQMTQTLIRKLTTLSQYEEALAKINSSVTDRLTVLKTKPQSIQRDILTICNDPFTLAQQLTHIELERLSYIGPEEFVQAFVQKDPLDNDKNCFSDHKKASNLEAYVEWFNRLSYLVATEICMPVKKKHRARVIEFFIDVARECFNIGNFNSLMAIITGMNMSPVSRLKKTWAKVKTAKFDILEHQMDPSSNFYNYRTALRGATQRSITAHSSREKIVIPFFSLLIKDIYFLNEGCANRLPNGHVNFEKFWGLAKQVTEFMTWKKVECPFDRDRKILQYLLTAPVFSEDALYLASYESEGPENNMEKDRWKSLRSSLLNRT,not failed
